# Results taken from publication PMC12210189, “Crystal structure of the sucrose phosphorylase from Alteromonas mediterranea shows a loop transition in the active site” (Acta Crystallographica Section F: Structural Biology …, 2025).
# B1: sucrose phosphorylase from Alteromonas mediterranea (enzyme)
# chain: MGSIRNGVQLITYADRLGDGNIESLTNLLDGPLKGLFKGVHILPFYYPYDGEDAGFDPIDHTTVDERLGDWNNIKKLGESVDIMADLIVNHMSGQSEAFTDVLKKGRESEYWPLFLTKEDVFSGNDQAEIDEQIAKVFRPRPTPFFSDYEVGIETDSTETVPFWTTFTSNQIDIDVESELGKEYLSSILQSFTESNVDLIRLDAAGYAIKRAGSNCFMLEETFEFIEALSKRARTMGMQCLVEIHSHYQTQIDIAARCDSVYDFALPPLVLHTLFTKDASALAHWLSISPRNCFTVLDTHDGIGIVDVGASGDKPGLISADAINALVEQIHVNSNGESKKATGAAANNVDLYQVNCTYYDALGKDDFAYLVARAIQFFSPGIPQVYYGGLLAAHNDMELLANTNVGRDINRPYLTTAMVEDAIQKPVVKGLMQLITLRNENKAFGGAFDVTYTDNTLVLSWSNDGDAASLTVDFAAMDATINTVSNGEESTLSIGALLA
# notes: sucrose phosphorylase (AmSP-WT), Alteromonas mediterranea, UniProt S5AE64_9ALTE; synthetic gene in pET-28b; also called AmSP; AmSP-WT; source: E. coli BL21(DE3), purified (Ni-NTA IMAC, size-exclusion chromatography)
# Target: the molecule itself
# Experiment: crystal structure; sitting drop, 295 K; protein 6.9 mg/ml in 25 mM HEPES, 50 mM NaCl, 0.5 mM DTT pH 7.0; reservoir 60%(v/v) Tacsimate pH 7.0; apo enzyme; 2.15 Å; two molecules (one dimer) in the asymmetric unit
protein,measurement,value
B1,stoichiometry N,2
